One block for each binder: values may come before it.
What was measured:
human VEGFR2-Fc chimera = biological target: T1, human VEGFR2-Fc chimera (human, UniProt P35968 20-764); test: ELISA, coated VEGF109
T1 construct: also called hVEGFR2-Fc; VEGFR2-huFc; not shown: human Fc part of the bought chimera; not described
Method: Cells are harvested by centrifugation and lysed by sonication of the cell pellet. Inclusion bodies are isolated by centrifugation. […] The refolded protein is purified by ion exchange chromatography using a MonoQ5/50GL (Amersham BioSciences) column followed by gel filtration with a Superdex75 10/300 GL column (Amersheim BioSciences). […] To this end, 1 μg/mL of recombinant human VEGF109 is immobilized overnight at 4° C. in a 96-well MaxiSorp plate (Nunc, Wiesbaden, Germany). Wells are blocked with a casein solution (1%).

[1] = biological target: T2, human DLL4, full length, overexpressed on cells (human, UniProt Q9NR61 27-685); test: FMAT, hNotch1-Fc on CHO-hDLL4, +25 uM HSA
T2 construct: CHO cells in FMAT, HEK293 cells in the reporter assay; also called hDLL4; CHO-hDLL4

[2] = biological target: T2, human DLL4, full length, overexpressed …; test: FMAT, hNotch1-Fc on CHO-hDLL4, -HSA
[3] = biological target: T3, mouse DLL4, full length, overexpressed on CHO cells (mouse, UniProt Q9JI71 27-686); test: FMAT, hNotch1-Fc on CHO-mDLL4, +25 uM HSA
T3 construct: whole, on cells; also called mDLL4; CHO-mDLL4
T3 sequence (Q9JI71 27-686): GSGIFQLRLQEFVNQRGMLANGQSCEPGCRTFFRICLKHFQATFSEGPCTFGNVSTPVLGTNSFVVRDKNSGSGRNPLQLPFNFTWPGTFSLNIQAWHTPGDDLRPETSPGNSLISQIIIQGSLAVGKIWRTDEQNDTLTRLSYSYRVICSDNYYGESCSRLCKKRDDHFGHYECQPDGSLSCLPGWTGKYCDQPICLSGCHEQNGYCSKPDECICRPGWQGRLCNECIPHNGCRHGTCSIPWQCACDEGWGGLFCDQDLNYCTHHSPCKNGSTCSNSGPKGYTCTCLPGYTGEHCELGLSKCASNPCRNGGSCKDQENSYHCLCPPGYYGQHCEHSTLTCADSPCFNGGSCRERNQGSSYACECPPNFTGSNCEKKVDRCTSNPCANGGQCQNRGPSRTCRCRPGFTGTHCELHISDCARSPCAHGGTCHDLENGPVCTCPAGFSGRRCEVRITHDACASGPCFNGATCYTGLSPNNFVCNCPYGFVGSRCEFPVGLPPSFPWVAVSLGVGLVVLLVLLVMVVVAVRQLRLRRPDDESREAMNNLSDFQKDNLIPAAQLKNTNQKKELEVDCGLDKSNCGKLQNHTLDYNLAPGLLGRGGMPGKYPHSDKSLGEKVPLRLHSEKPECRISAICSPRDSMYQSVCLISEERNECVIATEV

[4] = biological target: T3, mouse DLL4, full length, overexpressed …; test: FMAT, hNotch1-Fc on CHO-mDLL4, -HSA
recombinant human DLL4 = biological target: T4, recombinant human DLL4 (human, UniProt Q9NR61 25-522); test: Biacore off-rate, periplasmic extract; single VHH, not bracketed
T4 construct: also called rhDLL4; hDLL4

[5] = biological target: T5, human DLL4 overexpressed on cells (human, UniProt Q9NR61 27-685); test: FMAT, labelled hNotch1-Fc on CHO-hDLL4, periplasmic extract
T5 construct: full length human DLL4 on CHO or HEK293 cells; also called CHO-hDLL4; CHO-hDII4
Description: (§1) All calculations are based on the FL1_total signal which comprises the average of the fluorescence per well times the number of counts per well.

[6] = biological target: T6, mouse DLL4 overexpressed on cells (mouse, UniProt Q9JI71 27-686); test: FMAT, labelled hNotch1-Fc on CHO-mDLL4, periplasmic extract
T6 construct: whole, on cells; also called CHO-mDLL4; CHO-mDII4
T6 sequence (Q9JI71 27-686): as above
Description: as §1

T1 sequence (P35968 20-764, change not shown): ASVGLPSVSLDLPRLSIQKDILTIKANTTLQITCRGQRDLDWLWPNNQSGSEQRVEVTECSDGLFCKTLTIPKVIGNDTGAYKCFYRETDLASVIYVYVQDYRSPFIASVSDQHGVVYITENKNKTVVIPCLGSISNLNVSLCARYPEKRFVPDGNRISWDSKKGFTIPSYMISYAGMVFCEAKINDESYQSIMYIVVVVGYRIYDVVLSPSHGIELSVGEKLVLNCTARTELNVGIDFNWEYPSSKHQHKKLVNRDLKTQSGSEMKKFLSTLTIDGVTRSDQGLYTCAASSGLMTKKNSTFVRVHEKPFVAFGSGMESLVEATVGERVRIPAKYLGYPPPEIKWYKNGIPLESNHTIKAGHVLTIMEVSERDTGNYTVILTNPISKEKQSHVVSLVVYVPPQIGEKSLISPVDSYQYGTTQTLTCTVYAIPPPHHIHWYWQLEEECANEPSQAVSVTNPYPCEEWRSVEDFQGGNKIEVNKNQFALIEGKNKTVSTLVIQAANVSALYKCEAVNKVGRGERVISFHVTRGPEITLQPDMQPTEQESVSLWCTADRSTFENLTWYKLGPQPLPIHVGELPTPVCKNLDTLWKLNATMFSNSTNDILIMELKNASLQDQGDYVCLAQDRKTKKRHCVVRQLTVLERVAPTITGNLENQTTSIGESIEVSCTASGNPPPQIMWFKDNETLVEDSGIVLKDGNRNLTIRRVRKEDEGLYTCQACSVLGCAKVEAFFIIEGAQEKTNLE

binding result (human VEGFR2-Fc chimera): binds
B1: recombinant human VEGF109 (ligand, UniProt P15692 207-315, looked up)
chain: APMAEGGGQNHHEVVKFMDVYQRSYCHPIETLVDIFQEYPDEIEYIFKPSCVPLMRCGGCCNDEGLECVPTEESNITMQIMRIKPHQGQHIGEMSFLQHNKCECRPKKD
notes: residue numbers count on GenBank AAM03108.1; also called rhVEGF109

IC50 [1]: 7.1 nM
% inh [2]: 87%
IC50 [2]: 5.5 nM
IC50 [3]: 2.8 nM
% inh [4]: 99%
IC50 [4]: 2.4 nM
B2: DLLBII018 (VHH)
VHH: EVQLVESGGGLVQPGGSLRLSCAASGRTFSSYAMAWYRQAPGKEREYVAAIRWSGGTAYYADSVKGRFTISRDNAKNTVYLQMNSLRPEDTAVYYCANRAPDTRLAPYEYDHWGQGTLVTVSS

koff (recombinant human DLL4): 0.02 s⁻¹
% inh [5]: 85%
% inh [6]: 78%
B3: DLLBII101F01 (VHH)
VHH: EVQLVESGGGLVQAGGSLRLSCAASGRTFSNYAMGWFRQAPGKEREFVAAISWSGGDTYYADSVKGRFTISRDNAKNTVCLQMNSLKPEDTAVYYCAASFQSGAAPGANFYDYWGQGTQVTVSS

Reference: patent US20140120095A1 (Boehringer Ingelheim, published 2014)
